Biological target: T22-GFP-H6 protein nanoparticle (unlabeled) (horseshoe crab | not stated)
Assay: SEC-MALS; Superdex 200 increase 10/300 GL; 166 mM NaHCO3, 333 mM NaCl, 0.1 mM NiCl2, pH 8; average molar mass of the self-assembled nanoparticles, in duplicate

stoichiometry N: 10 copies
Substance: T22-GFP-H6 protein nanoparticle (unlabeled)
